Results as given in patent US20220411504A1 (Janssen / Centocor, published 2022).

Tests used:
[1] = target: HLA-G on cells (K562-HLA-G and HLA-G expressing tumor cells) (human); assay: cell-based or functional assay
[2] = target: T1, MHGW8 (B2m-3(G4S)-HLA-G1-G4S-Avi) (human, biotinylated (Avi tag) in the blocking assay); assay: SPR, mAb captured by goat anti-human Fc, MHGW8 flowed
T1 construct: Single chain β2m-HLA-G1; also called soluble HLA-G1 extracellular domain; recombinant biotinylated HLA-G1

| Binder | Cytotoxicity, EC50 (T cell-mediated, NCI-H2009-b2m target cells, 72 hr) [1] [nM] | other results |
| --- | --- | --- |
| HC3B235 (bispecific antibody, human IgG1, kappa, L234A L235A) scFv: QTVVTQEPSLTVSPGGTVTLTCRSSTGAVTTSNYANWVQQKPGQAPRGLIGGTNKRAPGTPARFSGSLLGGKAALTLSGVQPEDEAEYYCALWYSNLWVFGGGTKLTVLGGSEGKSSGSGSESKSTGGSEVQLVESGGGLVQPGGSLRLSCAASGFTFNTYAMNWVRQAPGKGLEWVARIRSKYNNYATYYAASVKGRFTISRDDSKNSLYLQMNSLKTEDTAVYYCVRHGNFGNSYVSWFAYWGQGTLVTVSSEPKSSDKTHTCPPCPAPEAAGGPSVFLFPPKPKDTLMISRTPEVTCVVVSVSHEDPEVKFNWYVDGVEVHNAKTKPREEQYNSTYRVVSVLTVLHQDWLNGKEYKCKVSNKALPAPIEKTISKAKGQPREPQVYVYPPSREEMTKNQVSLTCLVKGFYPSDIAVEWESNGQPENNYKTTPPVLDSDGSFALVSKLTVDKSRWQQGNVFSCSVMHEALHNHYTQKSLSLSPG heavy: QVQLQQSGPGLVKPSQTLSLTCAISGDSVSSNRAAWNWIRQSPSRGLEWLGRTYYRSKWYNDYAVSVKSRITINPDTSKNQISLQLNSVTPEDTAVYYCARVRPGIPFDYWGQGTPVTVSSASTKGPSVFPLAPSSKSTSGGTAALGCLVKDYFPEPVTVSWNSGALTSGVHTFPAVLQSSGLYSLSSVVTVPSSSLGTQTYICNVNHKPSNTKVDKKVEPKSCDKTHTCPPCPAPEAAGGPSVFLFPPKPKDTLMISRTPEVTCVVVSVSHEDPEVKFNWYVDGVEVHNAKTKPREEQYNSTYRVVSVLTVLHQDWLNGKEYKCKVSNKALPAPIEKTISKAKGQPREPQVYVLPPSREEMTKNQVSLLCLVKGFYPSDIAVEWESNGQPENNYLTWPPVLDSDGSFFLYSKLTVDKSRWQQGNVFSCSVMHEALHNHYTQKSLSLSPG light: not shown | 0.0837 | – |
| HC3B230 (bispecific antibody, human IgG1, kappa, L234A L235A) scFv: QTVVTQEPSLTVSPGGTVTLTCRSSTGAVTTSNYANWVQQKPGQAPRGLIGGTNKRAPGTPARFSGSLLGGKAALTLSGVQPEDEAEYYCALWYSNLWVFGGGTKLTVLGGSEGKSSGSGSESKSTGGSEVQLVESGGGLVQPGGSLRLSCAASGFTFNTYAMNWVRQAPGKGLEWVARIRSKYNNYATYYAASVKGRFTISRDDSKNSLYLQMNSLKTEDTAVYYCVRHGNFGNSYVSWFAYWGQGTLVTVSSEPKSSDKTHTCPPCPAPEAAGGPSVFLFPPKPKDTLMISRTPEVTCVVVSVSHEDPEVKFNWYVDGVEVHNAKTKPREEQYNSTYRVVSVLTVLHQDWLNGKEYKCKVSNKALPAPIEKTISKAKGQPREPQVYVYPPSREEMTKNQVSLTCLVKGFYPSDIAVEWESNGQPENNYKTTPPVLDSDGSFALVSKLTVDKSRWQQGNVFSCSVMHEALHNHYTQKSLSLSPG heavy: QVQLQQSGPGLVKPSQTLSLTCAISGDSVSSNSAAWNWIRQSPSRGLEWLGRTYYRSKWYNDYAVSVKSRITINPDTSKNQISLQLNSVTPEDTAVYYCAGDRRYGIVGLPFAYWGQGTLVTVSSASTKGPSVFPLAPSSKSTSGGTAALGCLVKDYFPEPVTVSWNSGALTSGVHTFPAVLQSSGLYSLSSVVTVPSSSLGTQTYICNVNHKPSNTKVDKKVEPKSCDKTHTCPPCPAPEAAGGPSVFLFPPKPKDTLMISRTPEVTCVVVSVSHEDPEVKFNWYVDGVEVHNAKTKPREEQYNSTYRVVSVLTVLHQDWLNGKEYKCKVSNKALPAPIEKTISKAKGQPREPQVYVLPPSREEMTKNQVSLLCLVKGFYPSDIAVEWESNGQPENNYLTWPPVLDSDGSFFLYSKLTVDKSRWQQGNVFSCSVMHEALHNHYTQKSLSLSPG light: not shown | 0.00992 | – |
| HC3B124 (bispecific antibody, human IgG1, lambda, L234A L235A) heavy: EVQLVESGGGLVQPGGSLRLSCAASGFTFNTYAMNWVRQAPGKGLEWVARIRSKYNNYATYYAASVKGRFTISRDDSKNSLYLQMNSLKTEDTAVYYCVRHGNFGNSYVSWFAYWGQGTLVTVSSASTKGPSVFPLAPSSKSTSGGTAALGCLVKDYFPEPVTVSWNSGALTSGVHTFPAVLQSSGLYSLSSVVTVPSSSLGTQTYICNVNHKPSNTKVDKKVEPKSCDKTHTCPPCPAPEAAGGPSVFLFPPKPKDTLMISRTPEVTCVVVSVSHEDPEVKFNWYVDGVEVHNAKTKPREEQYNSTYRVVSVLTVLHQDWLNGKEYKCKVSNKALPAPIEKTISKAKGQPREPQVYVYPPSREEMTKNQVSLTCLVKGFYPSDIAVEWESNGQPENNYKTTPPVLDSDGSFALVSKLTVDKSRWQQGNVFSCSVMHEALHNHYTQKSLSLSPG light: QTVVTQEPSLTVSPGGTVTLTCRSSTGAVTTSNYANWVQQKPGQAPRGLIGGTNKRAPGTPARFSGSLLGGKAALTLSGVQPEDEAEYYCALWYSNLWVFGGGTKLTVLGQPKAAPSVTLFPPSSEELQANKATLVCLISDFYPGAVTVAWKADSSPVKAGVETTTPSKQSNNKYAASSYLSLTPEQWKSHRSYSCQVTHEGSTVEKTVAPTECS scFv: DIVMTQSPDSLAVSLGERATINCKSSQSVLHSSNNKNYLTWFQQKPGQPPKLLIYWASTRESGVPDRFSGSGSGTDFTLTISSLQAEDVAVYYCHQYYSTPPTFGQGTKVEIKGGSEGKSSGSGSESKSTGGSQVQLQQSGPGLVKPSQTLSLTCAISGDSVSSNSAAWNWIRQSPSRGLEWLGRTYYRSKWYNDYAVSVKSRITINPDTSKNQISLQLNSVTPEDTAVYYCAGDRRYGIVGLPFAYWGQGTLVTVSSEPKSSDKTHTCPPCPAPEAAGGPSVFLFPPKPKDTLMISRTPEVTCVVVSVSHEDPEVKFNWYVDGVEVHNAKTKPREEQYNSTYRVVSVLTVLHQDWLNGKEYKCKVSNKALPAPIEKTISKAKGQPREPQVYVLPPSREEMTKNQVSLLCLVKGFYPSDIAVEWESNGQPENNYLTWPPVLDSDGSFFLYSKLTVDKSRWQQGNVFSCSVMHEALHNHYTQKSLSLSPG | 0.00385 | – |
| HC3B232 (bispecific antibody, human IgG1, kappa, L234A L235A) scFv: DIQMTQSPSSLSASVGDRVTITCRARQSIGTAIHWYQQKPGKAPKLLIKYASESISGVPSRFSGSGSGTDFTLTISSVQPEDFATYYCQQSGSWPYTFGQGTKLEIKGGSEGKSSGSGSESKSTGGSEVQLVESGGGLVKPGGSLRLSCAASGFTFSRYNMNWVRQAPGKGLEWVSSISTSSNYIYYADSVKGRFTFSRDNAKNSLDLQMSGLRAEDTAIYYCTRGWGPFDYWGQGTLVTVSSEPKSSDKTHTCPPCPAPEAAGGPSVFLFPPKPKDTLMISRTPEVTCVVVSVSHEDPEVKFNWYVDGVEVHNAKTKPREEQYNSTYRVVSVLTVLHQDWLNGKEYKCKVSNKALPAPIEKTISKAKGQPREPQVYVYPPSREEMTKNQVSLTCLVKGFYPSDIAVEWESNGQPENNYKTTPPVLDSDGSFALVSKLTVDKSRWQQGNVFSCSVMHEALHNHYTQKSLSLSPGK heavy: QVQLQQSGPGLVKPSQTLSLTCAISGDSVSSNSAAWNWIRQSPSRGLEWLGRTYYRSKWYNDYAVSVKSRITINPDTSKNQISLQLNSVTPEDTAVYYCAGDRRYGIVGLPFAYWGQGTLVTVSSASTKGPSVFPLAPSSKSTSGGTAALGCLVKDYFPEPVTVSWNSGALTSGVHTFPAVLQSSGLYSLSSVVTVPSSSLGTQTYICNVNHKPSNTKVDKKVEPKSCDKTHTCPPCPAPEAAGGPSVFLFPPKPKDTLMISRTPEVTCVVVSVSHEDPEVKFNWYVDGVEVHNAKTKPREEQYNSTYRVVSVLTVLHQDWLNGKEYKCKVSNKALPAPIEKTISKAKGQPREPQVYVLPPSREEMTKNQVSLLCLVKGFYPSDIAVEWESNGQPENNYLTWPPVLDSDGSFFLYSKLTVDKSRWQQGNVFSCSVMHEALHNHYTQKSLSLSPG light: not shown | 0.00677 | – |
| HC3B231 (bispecific antibody, human IgG1, kappa, L234A L235A) scFv: QSALTQPASVSGSPGQSITISCTGTSSNIGTYKFVSWYQQHPGKAPKVMIYEVSKRPSGVSNRFSGSKSGNTASLTISGLQAEDEADYYCVSYAGSGTLLFGGGTKLTVLGGSEGKSSGSGSESKSTGGSQVQLQQSGPGLVKPSQTLSLTCAISGDSVFNNNAAWSWIRQSPSRGLEWLGRTYYRSKWLYDYAVSVKSRITINPDTSKNQFSLQLNSVTPEDTAVYYCARGYSSSFDYWGQGTLVTVSSEPKSSDKTHTCPPCPAPEAAGGPSVFLFPPKPKDTLMISRTPEVTCVVVSVSHEDPEVKFNWYVDGVEVHNAKTKPREEQYNSTYRVVSVLTVLHQDWLNGKEYKCKVSNKALPAPIEKTISKAKGQPREPQVYVYPPSREEMTKNQVSLTCLVKGFYPSDIAVEWESNGQPENNYKTTPPVLDSDGSFALVSKLTVDKSRWQQGNVFSCSVMHEALHNHYTQKSLSLSPG heavy: QVQLQQSGPGLVKPSQTLSLTCAISGDSVSSNSAAWNWIRQSPSRGLEWLGRTYYRSKWYNDYAVSVKSRITINPDTSKNQISLQLNSVTPEDTAVYYCAGDRRYGIVGLPFAYWGQGTLVTVSSASTKGPSVFPLAPSSKSTSGGTAALGCLVKDYFPEPVTVSWNSGALTSGVHTFPAVLQSSGLYSLSSVVTVPSSSLGTQTYICNVNHKPSNTKVDKKVEPKSCDKTHTCPPCPAPEAAGGPSVFLFPPKPKDTLMISRTPEVTCVVVSVSHEDPEVKFNWYVDGVEVHNAKTKPREEQYNSTYRVVSVLTVLHQDWLNGKEYKCKVSNKALPAPIEKTISKAKGQPREPQVYVLPPSREEMTKNQVSLLCLVKGFYPSDIAVEWESNGQPENNYLTWPPVLDSDGSFFLYSKLTVDKSRWQQGNVFSCSVMHEALHNHYTQKSLSLSPG light: not shown | 0.126 | – |
| MHGB737 (antibody, human IgG1, kappa, V domains shown, IgG1; also called GL-optimized B694) VH: EVQLLESGGGLVQPGGSLRLSCAASGFTFSSYAMHWVRQAPGKGLEWVSGISGSGFSTYYVDSVKGRFTISRDNSKNTLYLQMNSLRAEDTAVYYCAKDNLVAGTVFDYWGQGTLVTVSS VL: not shown | – | Kd [2]: 2.56 nM; koff [2]: 0.00031 s⁻¹; kon [2]: 200000 M⁻¹ s⁻¹ |
